This data set deals with the molecule itself. Nature of the data set: AUC.

B1: WbpE from Pseudomonas aeruginosa PAO1 (enzyme, UniProt Q9HZ76 1-359, looked up)
chain: MIEFIDLKNQQARIKDKIDAGIQRVLRHGQYILGPEVTELEDRLADFVGAKYCISCANGTDALQIVQMALGVGPGDEVITPGFTYVATAETVALLGAKPVYVDIDPRTYNLDPQLLEAAITPRTKAIIPVSLYGQCADFDAINAIASKYGIPVIEDAAQSFGASYKGKRSCNLSTVACTSFFPSKPLGCYGDGGAIFTNDDELATAIRQIARHGQDRRYHHIRVGVNSRLDTLQAAILLPKLEIFEEEIALRQKVAAEYDLSLKQVGIGTPFIEVNNISVYAQYTVRMDNRESVQASLKAAGVPTAVHYPIPLNKQPAVADEKAKLPVGDKAATQVMSLPMHPYLDTASIKIICAALTN
Broadly, the stoichiometry N is a count of units in the complex or per binding partner. In the case of B1, the “stoichiometry N” value was 2.

The values are drawn from paper PMC2923267 (Biochemistry, 2010).
